Measurements published in the supplement of paper PMC9112550, “Optimization of the antimicrobial peptide Bac7 by deep mutational scanning” (BMC Biology, 2022).

Tested on: Escherichia coli TOP10
Test: shrunken log2 fold change of peptide-encoding DNA abundance (4.5 h post-induction vs induction); higher = less antimicrobial activity (less host growth inhibition)
Conditions: time post-induction: 4.5 h; library: site-saturation at positions 5, 18, 19, 20
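Note: peptides expressed intracellularly from a pBAD plasmid library in pooled LB shake-flask culture, induced with 0.3% L-arabinose, DNA abundance read by NGS, three biological replicates, DESeq2 with apeglm shrinkage.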

RRIRTRPPRLPRPRPRPCIDPRP
shrunken log2 fold change: -0.519

RRIRTRPPRLPRPRPRPCIVPRP
shrunken log2 fold change: -0.164

RRIRTRPPRLPRPRPRPCMGPRP
shrunken log2 fold change: -0.247

RRIRTRPPRLPRPRPRPCMSPRP
shrunken log2 fold change: -0.196

RRIRTRPPRLPRPRPRPCMTPRP
shrunken log2 fold change: -0.111

RRIRTRPPRLPRPRPRPCMYPRP
shrunken log2 fold change: -0.183

RRIRTRPPRLPRPRPRPCNKPRP
shrunken log2 fold change: -0.121

RRIRTRPPRLPRPRPRPCNSPRP
shrunken log2 fold change: -0.0206

RRIRTRPPRLPRPRPRPCPLPRP
shrunken log2 fold change: -0.325

RRIRTRPPRLPRPRPRPCPVPRP
shrunken log2 fold change: -0.175

RRIRTRPPRLPRPRPRPCRAPRP
shrunken log2 fold change: -0.0539

RRIRTRPPRLPRPRPRPCTLPRP
shrunken log2 fold change: -0.314

RRIRTRPPRLPRPRPRPCTQPRP
shrunken log2 fold change: -0.123

RRIRTRPPRLPRPRPRPCVFPRP
shrunken log2 fold change: -0.215

RRIRTRPPRLPRPRPRPCVIPRP
shrunken log2 fold change: -0.029

RRIRTRPPRLPRPRPRPCYVPRP
shrunken log2 fold change: -0.89

RRIRTRPPRLPRPRPRPDADPRP
shrunken log2 fold change: 0.0357

RRIRTRPPRLPRPRPRPDASPRP
shrunken log2 fold change: 0.0856

RRIRTRPPRLPRPRPRPDCCPRP
shrunken log2 fold change: 0.135

RRIRTRPPRLPRPRPRPDCGPRP
shrunken log2 fold change: 0.759

RRIRTRPPRLPRPRPRPDDAPRP
shrunken log2 fold change: -0.0135

RRIRTRPPRLPRPRPRPDDSPRP
shrunken log2 fold change: -1.36

RRIRTRPPRLPRPRPRPDEPPRP
shrunken log2 fold change: -0.105

RRIRTRPPRLPRPRPRPDFDPRP
shrunken log2 fold change: -0.375

RRIRTRPPRLPRPRPRPDFYPRP
shrunken log2 fold change: -0.241

RRIRTRPPRLPRPRPRPDGRPRP
shrunken log2 fold change: -0.0138

RRIRTRPPRLPRPRPRPDGYPRP
shrunken log2 fold change: -0.0637

RRIRTRPPRLPRPRPRPDHIPRP
shrunken log2 fold change: -0.242

RRIRTRPPRLPRPRPRPDHPPRP
shrunken log2 fold change: -0.224

RRIRTRPPRLPRPRPRPDINPRP
shrunken log2 fold change: -0.151

RRIRTRPPRLPRPRPRPDISPRP
shrunken log2 fold change: -0.038

RRIRTRPPRLPRPRPRPDKKPRP
shrunken log2 fold change: -0.0143

RRIRTRPPRLPRPRPRPDNKPRP
shrunken log2 fold change: -0.272

RRIRTRPPRLPRPRPRPDPFPRP
shrunken log2 fold change: -0.0199

RRIRTRPPRLPRPRPRPDPQPRP
shrunken log2 fold change: -0.0945

RRIRTRPPRLPRPRPRPDQTPRP
shrunken log2 fold change: -0.0468

RRIRTRPPRLPRPRPRPDSHPRP
shrunken log2 fold change: -0.153

RRIRTRPPRLPRPRPRPDSLPRP
shrunken log2 fold change: -0.153

RRIRTRPPRLPRPRPRPDTAPRP
shrunken log2 fold change: 0.0677

RRIRTRPPRLPRPRPRPDTEPRP
shrunken log2 fold change: -0.072

RRIRTRPPRLPRPRPRPDTFPRP
shrunken log2 fold change: 0.0276

RRIRTRPPRLPRPRPRPDTKPRP
shrunken log2 fold change: -0.212

RRIRTRPPRLPRPRPRPDVCPRP
shrunken log2 fold change: 0.11

RRIRTRPPRLPRPRPRPDWFPRP
shrunken log2 fold change: -0.112

RRIRTRPPRLPRPRPRPEALPRP
shrunken log2 fold change: 0.0496

RRIRTRPPRLPRPRPRPECMPRP
shrunken log2 fold change: 0.378

RRIRTRPPRLPRPRPRPECQPRP
shrunken log2 fold change: 0.0443

RRIRTRPPRLPRPRPRPEETPRP
shrunken log2 fold change: 0.0325

RRIRTRPPRLPRPRPRPEEVPRP
shrunken log2 fold change: -0.0075

RRIRTRPPRLPRPRPRPEFYPRP
shrunken log2 fold change: -0.212

RRIRTRPPRLPRPRPRPEGHPRP
shrunken log2 fold change: 0.0274

RRIRTRPPRLPRPRPRPEGKPRP
shrunken log2 fold change: 0.0733

RRIRTRPPRLPRPRPRPEHMPRP
shrunken log2 fold change: -0.0375

RRIRTRPPRLPRPRPRPEICPRP
shrunken log2 fold change: -0.0438

RRIRTRPPRLPRPRPRPEILPRP
shrunken log2 fold change: 0.0249

RRIRTRPPRLPRPRPRPEISPRP
shrunken log2 fold change: 0.00497

RRIRTRPPRLPRPRPRPEIWPRP
shrunken log2 fold change: 0.264

RRIRTRPPRLPRPRPRPELHPRP
shrunken log2 fold change: 0.396

RRIRTRPPRLPRPRPRPELTPRP
shrunken log2 fold change: 0.0104

RRIRTRPPRLPRPRPRPENQPRP
shrunken log2 fold change: 0.0593

RRIRTRPPRLPRPRPRPENWPRP
shrunken log2 fold change: 0.157

RRIRTRPPRLPRPRPRPERWPRP
shrunken log2 fold change: 0.354

RRIRTRPPRLPRPRPRPETPPRP
shrunken log2 fold change: 0.493

RRIRTRPPRLPRPRPRPEVGPRP
shrunken log2 fold change: 0.0668

RRIRTRPPRLPRPRPRPEVIPRP
shrunken log2 fold change: -0.0149

RRIRTRPPRLPRPRPRPEVMPRP
shrunken log2 fold change: 0.114

RRIRTRPPRLPRPRPRPEVTPRP
shrunken log2 fold change: -0.00738

RRIRTRPPRLPRPRPRPEWRPRP
shrunken log2 fold change: 0.338

RRIRTRPPRLPRPRPRPEWYPRP
shrunken log2 fold change: 0.135

RRIRTRPPRLPRPRPRPEYCPRP
shrunken log2 fold change: -0.189

RRIRTRPPRLPRPRPRPEYGPRP
shrunken log2 fold change: -0.0673

RRIRTRPPRLPRPRPRPEYPPRP
shrunken log2 fold change: -0.449

RRIRTRPPRLPRPRPRPFAAPRP
shrunken log2 fold change: 0.08

RRIRTRPPRLPRPRPRPFAEPRP
shrunken log2 fold change: 0.0116

RRIRTRPPRLPRPRPRPFAKPRP
shrunken log2 fold change: -0.0867

RRIRTRPPRLPRPRPRPFCDPRP
shrunken log2 fold change: -0.268

RRIRTRPPRLPRPRPRPFCFPRP
shrunken log2 fold change: -0.134

RRIRTRPPRLPRPRPRPFCLPRP
shrunken log2 fold change: -0.278

RRIRTRPPRLPRPRPRPFDFPRP
shrunken log2 fold change: -0.271

RRIRTRPPRLPRPRPRPFERPRP
shrunken log2 fold change: -0.0347

RRIRTRPPRLPRPRPRPFFDPRP
shrunken log2 fold change: -0.429

RRIRTRPPRLPRPRPRPFFNPRP
shrunken log2 fold change: -0.582

RRIRTRPPRLPRPRPRPFKHPRP
shrunken log2 fold change: -0.126

RRIRTRPPRLPRPRPRPFLWPRP
shrunken log2 fold change: 0.189

RRIRTRPPRLPRPRPRPFMQPRP
shrunken log2 fold change: -0.0497

RRIRTRPPRLPRPRPRPFMWPRP
shrunken log2 fold change: -0.119

RRIRTRPPRLPRPRPRPFNAPRP
shrunken log2 fold change: -0.344

RRIRTRPPRLPRPRPRPFNDPRP
shrunken log2 fold change: -0.136

RRIRTRPPRLPRPRPRPFNSPRP
shrunken log2 fold change: -0.127

RRIRTRPPRLPRPRPRPFQAPRP
shrunken log2 fold change: -0.0372

RRIRTRPPRLPRPRPRPFQFPRP
shrunken log2 fold change: -0.131

RRIRTRPPRLPRPRPRPFQPPRP
shrunken log2 fold change: 0.0737

RRIRTRPPRLPRPRPRPFQTPRP
shrunken log2 fold change: 0.0582

RRIRTRPPRLPRPRPRPFSCPRP
shrunken log2 fold change: -0.0158

RRIRTRPPRLPRPRPRPFSYPRP
shrunken log2 fold change: -0.0874

RRIRTRPPRLPRPRPRPFTVPRP
shrunken log2 fold change: -0.00127

RRIRTRPPRLPRPRPRPFVHPRP
shrunken log2 fold change: -0.138

RRIRTRPPRLPRPRPRPFWQPRP
shrunken log2 fold change: 0.0872

RRIRTRPPRLPRPRPRPFYGPRP
shrunken log2 fold change: -0.473

RRIRTRPPRLPRPRPRPGCWPRP
shrunken log2 fold change: 0.453

RRIRTRPPRLPRPRPRPGDFPRP
shrunken log2 fold change: -0.093

RRIRTRPPRLPRPRPRPGDYPRP
shrunken log2 fold change: 0.142

RRIRTRPPRLPRPRPRPGEVPRP
shrunken log2 fold change: 0.211

RRIRTRPPRLPRPRPRPGGVPRP
shrunken log2 fold change: 0.346

RRIRTRPPRLPRPRPRPGGYPRP
shrunken log2 fold change: -0.0912

RRIRTRPPRLPRPRPRPGHKPRP
shrunken log2 fold change: -0.106

RRIRTRPPRLPRPRPRPGHPPRP
shrunken log2 fold change: 0.09

RRIRTRPPRLPRPRPRPGHVPRP
shrunken log2 fold change: -0.144

RRIRTRPPRLPRPRPRPGMEPRP
shrunken log2 fold change: 0.013

RRIRTRPPRLPRPRPRPGMPPRP
shrunken log2 fold change: -0.0497

RRIRTRPPRLPRPRPRPGMRPRP
shrunken log2 fold change: 0.744

RRIRTRPPRLPRPRPRPGPSPRP
shrunken log2 fold change: 0.438

RRIRTRPPRLPRPRPRPGQMPRP
shrunken log2 fold change: 0.0303

RRIRTRPPRLPRPRPRPGRCPRP
shrunken log2 fold change: 0.178

RRIRTRPPRLPRPRPRPGRHPRP
shrunken log2 fold change: 0.0235

RRIRTRPPRLPRPRPRPGRKPRP
shrunken log2 fold change: 0.282

RRIRTRPPRLPRPRPRPGVEPRP
shrunken log2 fold change: -0.0469

RRIRTRPPRLPRPRPRPGWDPRP
shrunken log2 fold change: 0.129

RRIRTRPPRLPRPRPRPHAYPRP
shrunken log2 fold change: -0.635

RRIRTRPPRLPRPRPRPHCDPRP
shrunken log2 fold change: -0.0828

RRIRTRPPRLPRPRPRPHDRPRP
shrunken log2 fold change: -0.00195

RRIRTRPPRLPRPRPRPHDYPRP
shrunken log2 fold change: -0.196

RRIRTRPPRLPRPRPRPHEAPRP
shrunken log2 fold change: -0.0062

RRIRTRPPRLPRPRPRPHEFPRP
shrunken log2 fold change: -0.175

RRIRTRPPRLPRPRPRPHERPRP
shrunken log2 fold change: 0.594

RRIRTRPPRLPRPRPRPHGAPRP
shrunken log2 fold change: -0.0597

RRIRTRPPRLPRPRPRPHHDPRP
shrunken log2 fold change: -0.469

RRIRTRPPRLPRPRPRPHHNPRP
shrunken log2 fold change: -0.795

RRIRTRPPRLPRPRPRPHIEPRP
shrunken log2 fold change: -0.0284

RRIRTRPPRLPRPRPRPHKKPRP
shrunken log2 fold change: 0.0809

RRIRTRPPRLPRPRPRPHLLPRP
shrunken log2 fold change: -0.411

RRIRTRPPRLPRPRPRPHLYPRP
shrunken log2 fold change: -0.154

RRIRTRPPRLPRPRPRPHMEPRP
shrunken log2 fold change: 0.0103

RRIRTRPPRLPRPRPRPHMNPRP
shrunken log2 fold change: -0.547

RRIRTRPPRLPRPRPRPHMVPRP
shrunken log2 fold change: 0.00159

RRIRTRPPRLPRPRPRPHNCPRP
shrunken log2 fold change: -0.113

RRIRTRPPRLPRPRPRPHRMPRP
shrunken log2 fold change: -0.267

RRIRTRPPRLPRPRPRPHRWPRP
shrunken log2 fold change: -0.254

RRIRTRPPRLPRPRPRPHSCPRP
shrunken log2 fold change: -0.0159

RRIRTRPPRLPRPRPRPHSEPRP
shrunken log2 fold change: -0.0681

RRIRTRPPRLPRPRPRPHTYPRP
shrunken log2 fold change: -0.296

RRIRTRPPRLPRPRPRPHVCPRP
shrunken log2 fold change: -0.04

RRIRTRPPRLPRPRPRPHWHPRP
shrunken log2 fold change: -0.576

RRIRTRPPRLPRPRPRPHYFPRP
shrunken log2 fold change: -0.914

RRIRTRPPRLPRPRPRPIAGPRP
shrunken log2 fold change: -0.16

RRIRTRPPRLPRPRPRPICTPRP
shrunken log2 fold change: 0.409

RRIRTRPPRLPRPRPRPIDRPRP
shrunken log2 fold change: -0.148

RRIRTRPPRLPRPRPRPIDVPRP
shrunken log2 fold change: -0.0217

RRIRTRPPRLPRPRPRPIEKPRP
shrunken log2 fold change: -0.478

RRIRTRPPRLPRPRPRPIFWPRP
shrunken log2 fold change: 0.85
